# Measured values from PMC5992146.
# pKd: −log10 of the molar value.
# How the values were obtained:
# [1] = molecular target: actin (UniProt P68135)
# [2] = molecular target: actin (UniProt P68135); experiment: co-sedimentation; MYO3A (0.5 µM) equilibrated with actin (0-60 µM) in KMg50 buffer (50 mM KCl, 1 mM EGTA, 1 mM MgCl2, 10 mM imidazole pH 7.0, 1 mM DTT) with ATP regeneration system, 1 mM ATP added, centrifuged 10 min at 25 °C; fraction bound from GFP fluorescence of the supernatant and from Coomassie SDS-PAGE, hyperbolic fit; steady-state actin affinity (K_Actin) in the presence of ATP
Substance,"K (ATPase): actin concentration at which the steady-state actin-activated ATPase activity is one-half maximal (KMg50 buffer, 25 °C) [1] [µM]",pKd [2]
MYO3AΔK 2IQ c-GFP L697W (from UniProt Q8NEV4-1 1-1616) (domain or fragment),< 0.77,5.66
MYO3AΔK 2IQ c-GFP WT (from UniProt Q8NEV4-1 1-1616) (domain or fragment),1.93,5.33
